The source of these data is publication PMC6901024 (Journal of the American Chemical Society, 2019).

In general, stoichiometry N refers to a count of units in the complex or per binding partner.

This series concerns the molecule itself. Nature of the series: SEC. (In general: Size exclusion chromatography separates by hydrodynamic size, large species first.)

B1: His6-FtmOx1-Y140F (enzyme)
chain: MTVDSKPQLQRLAADADVDRMCRLLEEDGAFILKGLLPFDVVESFNRELDVQMAIPPPKGERLLADKYPPHFKYVPNVATTCPTFRNTVLINPVIHAICEAYFQRTGDYWLSAAFLREIESGMPAQPFHRDDATHPLMHFQPLEAPPVSLSVIFPLTEFTEENGATEVILGSHRWTEVGTPERDQAVLATMDPGDVLIVRQRVVHAGGGNRTTAGKPRRVVLAYFNSVQLTPFETYRTMPREMVESMTVLGQRMLGWRTMKPSDPNIVGINLIDDKRLENVLQLKAADSPA
B1: the “stoichiometry N” value worked out at 2.
